{
  "source": "patent US5455329A",
  "about": "“DNA sequences coding for PTH variants, PTH variants, expression vector, bacterial host, use and therapeutic composition” (Gesellschaft fur Biotechnologische Forschung mbH (GBF), priority 1989, dated 1995)",
  "molecules": {"B1": {"name": "Q29N: hPTH variant Gln(29) -> Asn(29), lengthened N-terminally by one proline (protein, UniProt P01270 32-115, looked up, variant Q29N)", "Parathyroid hormone": "SVSEIQLMHNLGKHLNSMERVEWLRKKLNDVHNFVALGAPLAPRDAGSQRPRKKEDNVLVESHEKSLGEADKADVNVLTKAKSQ", "modifications": "Parathyroid hormone N-terminal proline extension", "notes": "hPTH variant Gln(29) -> Asn(29), lengthened N-terminally by one proline"}, "B2": {"name": "K27R: hPTH variant Lys(27) -> Arg(27), lengthened N-terminally by one proline (protein, UniProt P01270 32-115, looked up, variant K27R)", "Parathyroid hormone": "B1 Parathyroid hormone with K27R, N29Q", "modifications": "Parathyroid hormone N-terminal proline extension", "notes": "hPTH variant Lys(27) -> Arg(27), lengthened N-terminally by one proline"}, "B3": {"name": "Q29A: hPTH variant Gln(29) -> Ala(29), lengthened N-terminally by one proline (protein, UniProt P01270 32-115, looked up, variant Q29A)", "Parathyroid hormone": "B1 Parathyroid hormone with N29A", "modifications": "Parathyroid hormone N-terminal proline extension", "notes": "hPTH variant Gln(29) -> Ala(29), lengthened N-terminally by one proline"}, "B4": {"name": "H32L: hPTH variant His(32) -> Leu(32), lengthened N-terminally by one proline (protein, UniProt P01270 32-115, looked up, variant H32L)", "Parathyroid hormone": "B1 Parathyroid hormone with N29Q, H32L", "modifications": "Parathyroid hormone N-terminal proline extension", "notes": "hPTH variant His(32) -> Leu(32), lengthened N-terminally by one proline"}, "B5": {"name": "H32R: hPTH variant His(32) -> Arg(32), lengthened N-terminally by one proline (protein, UniProt P01270 32-115, looked up, variant H32R)", "Parathyroid hormone": "B1 Parathyroid hormone with N29Q, H32R", "modifications": "Parathyroid hormone N-terminal proline extension", "notes": "hPTH variant His(32) -> Arg(32), lengthened N-terminally by one proline"}, "B6": {"name": "H32K: hPTH variant His(32) -> Lys(32), lengthened N-terminally by one proline (protein, UniProt P01270 32-115, looked up, variant H32K)", "Parathyroid hormone": "B1 Parathyroid hormone with N29Q, H32K", "modifications": "Parathyroid hormone N-terminal proline extension", "notes": "hPTH variant His(32) -> Lys(32), lengthened N-terminally by one proline"}, "B7": {"name": "L11K: hPTH variant Leu(11) -> Lys(11), lengthened N-terminally by one proline (protein, UniProt P01270 32-115, looked up, variant L11K)", "Parathyroid hormone": "B1 Parathyroid hormone with L11K, N29Q", "modifications": "Parathyroid hormone N-terminal proline extension", "notes": "hPTH variant Leu(11) -> Lys(11), lengthened N-terminally by one proline"}, "B8": {"name": "E4R: hPTH variant Glu(4) -> Arg(4), lengthened N-terminally by one proline (protein, UniProt P01270 32-115, looked up, variant E4R)", "Parathyroid hormone": "B1 Parathyroid hormone with E4R, N29Q", "modifications": "Parathyroid hormone N-terminal proline extension", "notes": "hPTH variant Glu(4) -> Arg(4), lengthened N-terminally by one proline"}, "B9": {"name": "K27L: hPTH variant Lys(27) -> Leu(27), lengthened N-terminally by one proline (protein, UniProt P01270 32-115, looked up, variant K27L)", "Parathyroid hormone": "B1 Parathyroid hormone with K27L, N29Q", "modifications": "Parathyroid hormone N-terminal proline extension", "notes": "hPTH variant Lys(27) -> Leu(27), lengthened N-terminally by one proline"}, "B10": {"name": "E4R, R20E: hPTH variant Glu(4) Arg(20) -> Arg(4), Glu(20), lengthened N-terminally by one proline (protein, UniProt P01270 32-115, looked up, variant E4R R20E)", "Parathyroid hormone": "B1 Parathyroid hormone with E4R, R20E, N29Q", "modifications": "Parathyroid hormone N-terminal proline extension", "notes": "hPTH variant Glu(4) Arg(20) -> Arg(4), Glu(20), lengthened N-terminally by one proline"}, "B11": {"name": "K13P: hPTH variant Lys(13) -> Pro(13), lengthened N-terminally by one proline (protein, UniProt P01270 32-115, looked up, variant K13P)", "Parathyroid hormone": "B1 Parathyroid hormone with K13P, N29Q", "modifications": "Parathyroid hormone N-terminal proline extension", "notes": "hPTH variant Lys(13) -> Pro(13), lengthened N-terminally by one proline"}, "B12": {"name": "R20E: hPTH variant Arg(20) -> Glu(20), lengthened N-terminally by one proline (protein, UniProt P01270 32-115, looked up, variant R20E)", "Parathyroid hormone": "B1 Parathyroid hormone with R20E, N29Q", "modifications": "Parathyroid hormone N-terminal proline extension", "notes": "hPTH variant Arg(20) -> Glu(20), lengthened N-terminally by one proline"}},
  "note": "Residue numbers refer to the chain shown, from its start. Names may count otherwise.",
  "data": [
    {"tested_on": "adenylate cyclase in isolated membranes of porcine adrenal cortices", "assay": "Stimulation of adenylate cyclase in isolated membranes, in vitro test according to Mohr and Hesch", "type": "biochemical", "conditions": "qualitative, versus wild type PTH", "procedure": "(§1) The PTH variants so obtained were tested for their ability to stimulate adenylate cyclase in isolated membranes of porcine adrenal cortices in an in vitro test according to Mohr and Hesch (Biochem. J., 188 (1980) 649-656) .", "values": [
      {"molecule": "B1", "Effect on adenylate cyclase stimulation (in words, group classification)": "maintain the stimulation"},
      {"molecule": "B2", "Effect on adenylate cyclase stimulation (in words, group classification)": "maintain the stimulation"},
      {"molecule": "B3", "Effect on adenylate cyclase stimulation (in words, group classification)": "substantial retention of the effect on adenylate cyclase"},
      {"molecule": "B4", "Effect on adenylate cyclase stimulation (in words, group classification)": "substantial retention of the effect on adenylate cyclase"},
      {"molecule": "B5", "Effect on adenylate cyclase stimulation (in words, group classification)": "substantial retention of the effect on adenylate cyclase"},
      {"molecule": "B6", "Effect on adenylate cyclase stimulation (in words, group classification)": "substantial retention of the effect on adenylate cyclase"},
      {"molecule": "B7", "Effect on adenylate cyclase stimulation (in words, group classification)": "maintain the stimulation of adenylate cyclase"},
      {"molecule": "B8", "Effect on adenylate cyclase stimulation (in words, group classification)": "significant reduction in adenylate cyclase stimulation"},
      {"molecule": "B9", "Effect on adenylate cyclase stimulation (in words, group classification)": "significant reduction in adenylate cyclase stimulation"},
      {"molecule": "B10", "Effect on adenylate cyclase stimulation (in words, group classification)": "significant reduction in adenylate cyclase stimulation"},
      {"molecule": "B11", "Effect on adenylate cyclase stimulation (in words, group classification)": "significant reduction in adenylate cyclase stimulation"},
      {"molecule": "B12", "Effect on adenylate cyclase stimulation (in words, group classification)": "significant reduction in adenylate cyclase stimulation"}
    ]},
    {"tested_on": "adenylate cyclase in isolated membranes of porcine adrenal cortices", "assay": "Stimulation of adenylate cyclase in isolated membranes, in vitro test according to Mohr and Hesch", "type": "biochemical", "conditions": "relative to recombinant hPTH (=100); stimulation beyond the base level", "procedure": "as §1", "units": {"Adenylate cyclase (%) relative activity": "%"}, "values": [
      {"molecule": "rec-hPTH: recombinant human parathyroid hormone wild type, lengthened N-terminally by one proline residue; reference = 100 % [reference compound]", "Adenylate cyclase (%) relative activity": 100},
      {"molecule": "B1", "Adenylate cyclase (%) relative activity": 99},
      {"molecule": "B2", "Adenylate cyclase (%) relative activity": 90},
      {"molecule": "B3", "Adenylate cyclase (%) relative activity": 104},
      {"molecule": "B4", "Adenylate cyclase (%) relative activity": 93},
      {"molecule": "B5", "Adenylate cyclase (%) relative activity": 87},
      {"molecule": "B6", "Adenylate cyclase (%) relative activity": 85},
      {"molecule": "B7", "Adenylate cyclase (%) relative activity": 89},
      {"molecule": "B8", "Adenylate cyclase (%) relative activity": 47},
      {"molecule": "B9", "Adenylate cyclase (%) relative activity": 35},
      {"molecule": "B10", "Adenylate cyclase (%) relative activity": 20},
      {"molecule": "B11", "Adenylate cyclase (%) relative activity": 6},
      {"molecule": "B12", "Adenylate cyclase (%) relative activity": 0}
    ]},
    {"tested_on": "embryonal chicken chondrocytes", "assay": "Increase of DNA synthesis of embryonal chicken chondrocytes", "type": "cell-based", "conditions": "qualitative, versus wild type PTH", "procedure": "(§2) They were also tested for their ability, according to DE-A-37 25 319.0 and DE-A-37 25 320.4, to increase the DNA synthesis of embryonal chicken chondrocytes.", "values": [
      {"molecule": "B1", "Effect on stimulation of DNA synthesis (in words, group classification)": "maintain the stimulation"},
      {"molecule": "B2", "Effect on stimulation of DNA synthesis (in words, group classification)": "maintain the stimulation"},
      {"molecule": "B3", "Effect on stimulation of DNA synthesis (in words, group classification)": "significant reduction in the stimulation of DNA synthesis"},
      {"molecule": "B4", "Effect on stimulation of DNA synthesis (in words, group classification)": "significant reduction in the stimulation of DNA synthesis"},
      {"molecule": "B5", "Effect on stimulation of DNA synthesis (in words, group classification)": "significant reduction in the stimulation of DNA synthesis"},
      {"molecule": "B6", "Effect on stimulation of DNA synthesis (in words, group classification)": "significant reduction in the stimulation of DNA synthesis"},
      {"molecule": "B7", "Effect on stimulation of DNA synthesis (in words, group classification)": "reduce that of DNA synthesis"},
      {"molecule": "B8", "Effect on stimulation of DNA synthesis (in words, group classification)": "increase in DNA synthesis"},
      {"molecule": "B9", "Effect on stimulation of DNA synthesis (in words, group classification)": "increase in DNA synthesis"},
      {"molecule": "B10", "Effect on stimulation of DNA synthesis (in words, group classification)": "increase in DNA synthesis"},
      {"molecule": "B11", "Effect on stimulation of DNA synthesis (in words, group classification)": "increase in DNA synthesis"},
      {"molecule": "B12", "Effect on stimulation of DNA synthesis (in words, group classification)": "unaffected DNA synthesis"}
    ]},
    {"tested_on": "embryonal chicken chondrocytes", "assay": "Increase of DNA synthesis of embryonal chicken chondrocytes", "type": "cell-based", "conditions": "relative to recombinant hPTH (=100); stimulation beyond the base level; chondrocytes", "procedure": "as §2", "units": {"DNA synthesis (%) relative activity": "%"}, "values": [
      {"molecule": "rec-hPTH: recombinant human parathyroid hormone wild type, lengthened N-terminally by one proline residue; reference = 100 % [reference compound]", "DNA synthesis (%) relative activity": 100},
      {"molecule": "B1", "DNA synthesis (%) relative activity": 95},
      {"molecule": "B2", "DNA synthesis (%) relative activity": 81},
      {"molecule": "B3", "DNA synthesis (%) relative activity": 8},
      {"molecule": "B4", "DNA synthesis (%) relative activity": 11},
      {"molecule": "B5", "DNA synthesis (%) relative activity": 36},
      {"molecule": "B6", "DNA synthesis (%) relative activity": 22},
      {"molecule": "B7", "DNA synthesis (%) relative activity": 21},
      {"molecule": "B8", "DNA synthesis (%) relative activity": 88},
      {"molecule": "B9", "DNA synthesis (%) relative activity": 70},
      {"molecule": "B10", "DNA synthesis (%) relative activity": 58},
      {"molecule": "B11", "DNA synthesis (%) relative activity": 88},
      {"molecule": "B12", "DNA synthesis (%) relative activity": 0}
    ]}
  ]
}
